Reference: article PMC5339894, “G196 epitope tag system: a novel monoclonal antibody, G196, recognizes the small, soluble peptide DLVPR with high affinity” (Scientific Reports, 2017)
Entries after “also recorded” stand apart in the source; their conditions may differ.

Legend:
Atf1-G196-GFP [1] = experiment: Western blot analysis of fission yeast extracts; assay type: cell-based; settings: C-terminally 3 × G196-tagged Atf1, mAb G196 1:2000
Description: C-terminal tagging of the atf1 gene (Supplementary Fig. 1) was accomplished using the G196t2 primer. This primer contains a sequence homologous to a portion of the atf1 coding sequence, a sequence for 3 × G196-tag, and a sequence homologous to another primer, com5. In the first PCR step, two sequences flanking the translational stop codon of the atf1 gene were amplified with the primers t1 and G196t2, and with the primers t3 and t4, using the genomic DNA as a template. The GFP-kanMX cassette was also amplified with the primers com5 and com6, using pFA6a-GFP(S65T)-kanMX as a template. The three PCR products were fused together in the second PCR step with the primers t1 and t4 to produce a DNA fragment for homologous recombination.
Cells (1 × 10^8) growing exponentially in YES medium at 30 °C were harvested to obtain whole cell extracts as described elsewhere. Samples were resolved by SDS-PAGE on 7% gels, semi-dry blotted to PVDF membranes, and detected using an ECL detection system (PerkinElmer, Waltham, MA, USA). Mouse mAb G196 (1:2000) and anti-GFP rabbit polyclonal antibody (1:1000) were used as primary antibodies. HRP-conjugated goat anti-mouse antibody (1:5000, Rockland Immunochemicals) and anti-rabbit antibody (1:2000, Jackson ImmunoResearch Laboratories) were used as secondary antibodies.

FHG-G196-NAC1 = experiment: immunofluorescence of GFP- and G196-tagged nuclear protein in HeLa cells; assay type: cell-based, human; settings: FHG-G196-NAC1, Alexa-594 / Alexa-488 secondary
Method: (§1) Figure 5 Application of the G196 epitope tag system for scientific research. (a) Western blot and immunoprecipitation (IP) analysis of FLAG-HA-Emerald GFP (FHG) tagged with C-terminal G196-tag in HeLa cells using mAb G196. HeLa cells were transfected with FHG/pcDNA3 or FHG-G196/pcDNA3. After incubation for two days, the cells were lysed and subjected to Western blotting with anti-FLAG (M2) or G196 mAbs (left panel). These lysates were immunoprecipitated with anti-FLAG (M2) (lanes 7, 8) or G196 (lanes 9, 10) mAbs and subjected to Western blotting with anti-FLAG polyclonal antibody (right panel). (b) Immunofluorescence of GFP- and G196-tagged nuclear protein in HeLa cells using mAb G196. HeLa cells were transfected with FHG-G196-NAC1/pcDNA3. After incubation for two days, the cells were fixed and incubated with mAb G196 and anti-GFP polyclonal Ab, then stained with Alexa-594 anti-mouse and Alexa-488 anti-rabbit secondary antibodies. (c) Western blot and chromatin immunoprecipitation (ChIP) analysis of Atf1-G196-GFP in fission yeast using mAb G196. A DNA fragment containing the transcription factor atf1 gene fused with the G196 epitope-GFP gene was replaced with the genomic atf1 gene. Protein extracts were separated by SDS-PAGE and detected with mAb G196 and anti-GFP polyclonal antibody (left panel). […] Asterisk indicates non-specific band also detected using the second Ab alone. […]

[2] = tested on: FLAG-HA-Emerald GFP tagged with C-terminal G196-tag (FHG-G196); experiment: immunoprecipitation (IP) from HeLa cell extracts; assay type: cell-based, human
Description: (§2) Short peptides and paired mAbs specific for the sequences of interest are powerful and irreplaceable tools for scientific research. To ascertain the possible versatility of G196-tag as a versatile fusion tag, we generated several human and yeast expression constructs in which the G196-tag was fused to reporter proteins. First, we expressed FLAG- and HA-tagged Emerald GFP (hereafter abbreviated FHG) as a reporter protein, C-terminally fused with a G196-tag (6P12, SDLVPRGSP) in HeLa cells.
Figure 5 Application of the G196 epitope tag system for scientific research. (a) Western blot and immunoprecipitation (IP) analysis of FLAG-HA-Emerald GFP (FHG) tagged with C-terminal G196-tag in HeLa cells using mAb G196. HeLa cells were transfected with FHG/pcDNA3 or FHG-G196/pcDNA3. After incubation for two days, the cells were lysed and subjected to Western blotting with anti-FLAG (M2) or G196 mAbs (left panel). These lysates were immunoprecipitated with anti-FLAG (M2) (lanes 7, 8) or G196 (lanes 9, 10) mAbs and subjected to Western blotting with anti-FLAG polyclonal antibody (right panel). (b) Immunofluorescence of GFP- and G196-tagged nuclear protein in HeLa cells using mAb G196. HeLa cells were transfected with FHG-G196-NAC1/pcDNA3. After incubation for two days, the cells were fixed and incubated with mAb G196 and anti-GFP polyclonal Ab, then stained with Alexa-594 anti-mouse and Alexa-488 anti-rabbit secondary antibodies. (c) Western blot and chromatin immunoprecipitation (ChIP) analysis of Atf1-G196-GFP in fission yeast using mAb G196. A DNA fragment containing the transcription factor atf1 gene fused with the G196 epitope-GFP gene was replaced with the genomic atf1 gene. Protein extracts were separated by SDS-PAGE and detected with mAb G196 and anti-GFP polyclonal antibody (left panel). GFP-Iws1 expressing cells were used as a negative control. Asterisk indicates non-specific band also detected using the second Ab alone. Schematic representation of the tdh1 locus (right upper panel). The promoter of the tdh1 gene harbors a CRE consensus site. […]

Atf1-G196-GFP [3] = experiment: immunofluorescence of fission yeast cells; assay type: cell-based
Method: Yeast cells exponentially growing in YES medium at 30 °C were fixed with 3% formaldehyde and incubated at 18 °C for 30 min. After quenching with 250 mM glycine, the cells were washed with PBSEMS (PBS buffer with 1 mM EGTA, 1 mM MgSO4 and 1.2 M sorbitol), resuspended in PBSEMS containing 5 mg/mL Zymolyase 20T (07663-91, Nacalai Tesque) and 0.1% 2-mercaptoethanol, and incubated at 37 °C for 1 h. The cells were washed three times with PBSEMS and resuspended in PBSEMT (PBS with 1 mM EGTA, 1 mM MgSO4 and 1% Triton X-100) and incubated at room temperature for 30 sec. After washing three times with PBSEM (PBS with 1 mM EGTA and 1 mM MgSO4), the cells were incubated in PBSEMALM (PBS with 1 mM EGTA, 1 mM MgSO4, 0.1% sodium azide, 0.1 M L-lysine and 5% skim milk) for 30 min. The cells were resuspended in PBSEMALM containing G196 mAb (1:1000) and anti-GFP rabbit polyclonal antibody (1:1000). After overnight incubation at room temperature, cells were washed with PBSEMALM three times, then resuspended in PBSEMALM containing anti-mouse antibody conjugated with Alexa 594 (1:100) and anti-rabbit conjugated with Alexa 488 (1:100). After one-hour incubation, the cells were washed with PBSEMAL containing 5% skim milk three times and resuspended in PBS containing 0.1% sodium azide. The cell suspension was mixed with an equal amount of 1% low-melting point agarose with DAPI on glass plates.

[4] = tested on: FLAG-HA-Emerald GFP tagged with C-terminal G196-tag (FHG-G196); experiment: Western blot analysis of HeLa cell extracts; assay type: cell-based, human
Description: as §2
as §1, with “HeLa cells were transfected with FHG-G196-NAC1/pcDNA3. After incubation for two days, the cells were fixed and incubated with mAb G196 and anti-GFP polyclonal Ab, then stained with Alexa-594 anti-mouse and Alexa-488 anti-rabbit secondary antibodies. (c) Western blot and chromatin immunoprecipitation (ChIP) analysis of Atf1-G196-GFP in fission yeast using mAb G196. A DNA fragment containing the transcription factor atf1 gene fused with the G196 epitope-GFP gene was replaced with the genomic atf1 gene.” left out

B1: mAb G196: mouse mAb (IgG1) raised against GST protein bacterially expressed using the pGEX-2T vector (antibody, V domains shown)
VH: QVKLQESGAELVKPGASVKLSCKASGYTFTNYWMHWVKLRPGQGFEWIGEINPSNGGSNYNEKFKRKATLTVDKSSSTAYMQLSSLTSEDSAVFYCSIWDSYFDYWGQGTTLTVSS
VL: NIVMTQSPKSMSMSVGERVTLTCKASENVVTYVSWYQQKPEQSPKLLIYGASNRYTGVPDRFTGSGSATDFTLTISSVQAEDLADYHCGQGYSYPYTFGGGTKLEIK
detection of Atf1 by Western blot (Atf1-G196-GFP [1]): detected the Atf1 protein | immunofluorescence detection of nuclear reporter protein NAC1 (FHG-G196-NAC1): successfully detected the nuclear reporter protein | immunoprecipitation of reporter lacking G196-tag ([2]; HeLa cell extracts, FHG (lane 9)): did not immunoprecipitate reporter protein lacking the G196-tag | immunoprecipitation of FHG-G196 ([2]; HeLa cell extracts, Western blot with anti-FLAG polyclonal antibody (lane 10)): efficiently immunoprecipited reporter protein | immunoprecipitation of FHG-G196 compared with anti-FLAG ([2]; lane 10 versus lane 8): comparable to that of FLAG immunoprecipitates | immunofluorescence recognition of Atf1 (Atf1-G196-GFP [3]; G196- and GFP-tagged Atf1, mAb 1:1000): recognized G196- and GFP-tagged Atf1 | immunofluorescence of Atf1 compared with anti-GFP polyclonal (Atf1-G196-GFP [3]; versus polyclonal anti-GFP antibody): comparable to that of a polyclonal anti-GFP antibody | detection of FHG (without G196-tag) by Western blot ([4]; HeLa cells transfected with FHG (lane 3)): not detected | detection of FHG-G196 by Western blot ([4]; HeLa cells transfected with FHG-G196, two days (lanes 2, 4)): detected as a single band; also recorded: as a single band at the proper molecular weight
